Test results: US20230035659A1, “Compositions and Methods for TTR Gene Editing and Treating ATTR Amyloidosis Comprising a Corticosteroid or Use Thereof” (Intellia Therapeutics, Inc., priority 2019, published 2023)
Strand notation (5' to 3'): a small letter for the sugar, then the base; units joined by * are phosphorothioate-linked, units joined directly phosphodiester-linked; [ ] holds rarer units or linkages, { } end groups; capitals alone tell only the bases. m = 2'-O-methyl; r = 2'-OH (RNA)

Assays:
[1] = test system: TTR; experiment: TTR editing dose response (EC50, maximum editing) in primary human hepatocytes treated with LNP formulated U-depleted Spy Cas9 mRNA and sgRNAs; format: cell-based; settings: LNP with U-depleted Spy Cas9 mRNA and cyno specific sgRNA, 8 point 3-fold dose response starting at 300 ng mRNA, 72 hours
Experimental: (§1) Primary liver hepatocytes. Primary human liver hepatocytes (PHH) and primary cynomolgus liver hepatocytes (PCH) (Gibco) were cultured per the manufacturer's protocol (Invitrogen, protocol 11.28.2012). In brief, the cells were thawed and resuspended in hepatocyte thawing medium with supplements (Gibco, Cat. CM7000) followed by centrifugation at 100 g for 10 minutes for human and 80 g for 4 minutes for cyno. The supernatant was discarded and the pelleted cells resuspended in hepatocyte plating medium plus supplement pack (Invitrogen, Cat. A1217601 and CM3000). Cells were counted and plated on Bio-coat collagen I coated 96-well plates (ThermoFisher, Cat. 877272) at a density of 33,000 cells/well for human or 60,000 cells/well for cyno (or 65,000 cells/well when assaying effects on TTR protein, described further below). Plated cells were allowed to settle and adhere for 6 or 24 hours in a tissue culture incubator at 37° C. and 5% CO2 atmosphere. After incubation cells were checked for monolayer formation and media was replaced with hepatocyte culture medium with serum-free supplement pack (Invitrogen, Cat. A1217601 and CM4000).
(§2) For LNPs prepared using the cross-flow technique, the LNPs were formed by impinging jet mixing of the lipid in ethanol with two volumes of RNA solutions and one volume of water. The lipid in ethanol is mixed through a mixing cross with the two volumes of RNA solution. A fourth stream of water is mixed with the outlet stream of the cross through an inline tee. (See WO2016010840 FIG. 2.) The LNPs were held for 1 hour at room temperature, and further diluted with water (approximately 1:1 v/v). Diluted LNPs were concentrated using tangential flow filtration on a flat sheet cartridge (Sartorius, 100 kD MWCO) and then buffer exchanged by diafiltration into 50 mM Tris, 45 mM NaCl, 5% (w/v) sucrose, pH 7.5 (TSS). Alternatively, the final buffer exchange into TSS was completed with PD-10 desalting columns (GE). If required, formulations were concentrated by centrifugation with Amicon 100 kDa centrifugal filters (Millipore). The resulting mixture was then filtered using a 0.2 μm sterile filter. The final LNP was stored at 4° C. or −80° C. until further use.
(§3) Additional PCR was performed per the manufacturer's protocols (Illumina) to add chemistry for sequencing. The amplicons were sequenced on an Illumina MiSeq instrument. The reads were aligned to a reference genome (e.g., the human reference genome (hg38), the cynomologus reference genome (mf5), the rat reference genome (rn6), or the mouse reference genome (mm10)) after eliminating those having low quality scores. The resulting files containing the reads were mapped to the reference genome (BAM files), where reads that overlapped the target region of interest were selected and the number of wild type reads versus the number of reads which contain an insertion, substitution, or deletion was calculated.
(§4) The editing percentage (e.g., the “editing efficiency” or “percent editing” or “indel frequency”) is defined as the total number of sequence reads with insertions/deletions (“indels”) or substitutions over the total number of sequence reads, including wild type.
(§5) Lipid nanoparticle formulations of modified sgRNAs targeting human TTR and the cyno matched sgRNA sequences were tested on primary human hepatocytes and primary cyno hepatocytes in a dose response curve. Primary human and cyno hepatocytes were plated as described in Example 1. Both cell lines were incubated at 37° C., 5% CO2 for 24 hours prior to treatment with LNPs. The LNPs used in the experiments detailed in Tables 20-22 were prepared using the cross-flow procedure described above but purified using PD-10 columns (GE Healthcare Life Sciences) and concentrated using Amicon centrifugal filter units (Millipore Sigma), each containing the specified sgRNA and Cas9 mRNA (SEQ ID NO:1). […] LNPs were incubated in hepatocyte maintenance media containing 6% cyno serum at 37° C., 5% CO2 for 5 minutes. […]

[2] = test system: TTR; experiment: TTR editing in primary cyno hepatocytes treated with LNP formulated Spy Cas9 mRNA (SEQ ID NO: 2) and sgRNAs, 12.5 ng mRNA; format: cell-based, cynomolgus monkey; settings: LNP formulated Spy Cas9 mRNA (SEQ ID NO: 2) and cyno matched sgRNA, lysed 72 hours post treatment
Experimental: as §1
In general, the lipid nanoparticle components were dissolved in 100% ethanol with the lipid component of various molar ratios. The RNA cargos were dissolved in 25 mM citrate, 100 mM NaCl, pH 5.0, resulting in a concentration of RNA cargo of approximately 0.45 mg/mL. The LNPs were formulated with a lipid amine to RNA phosphate (N:P) molar ratio of about 4.5 or about 6, with the ratio of mRNA to gRNA at 1:1 by weight.
The LNPs were formed by microfluidic mixing of the lipid and RNA solutions using a Precision Nanosystems NanoAssemblr™ Benchtop Instrument, according to the manufacturer's protocol. A 2:1 ratio of aqueous to organic solvent was maintained during mixing using differential flow rates. […]
as §3, with “The amplicons were sequenced on an Illumina MiSeq instrument.” left out
The editing percentage (e.g., the “editing efficiency” or “percent editing” or “indel frequency”) is defined as the total number of sequence reads with insertions/deletions (“indels”) or substitutions over the total number of sequence reads, including wild type. […]

[3] = test system: TTR; experiment: TTR editing dose response (EC50, maximum editing) in primary cyno hepatocytes treated with LNP formulated U-depleted Spy Cas9 mRNA and sgRNAs; format: cell-based, cynomolgus monkey
Experimental: as §1, §2, §3, §4, §5

B1: G000506: TTR Cyno specific sgRNA modified sequence, SEQ ID NO: 118; guide sequence of CR005366 (nucleic acid)
guide: mA*mU*mA*rCrCrArGrUrCrCrArGrCrGrArGrGrCrArGrGrUrUrUrUrArGrAmGmCmUmAmGmAmAmAmUmAmGmCrArArGrUrUrArArArArUrArArGrGrCrUrArGrUrCrCrGrUrUrArUrCrAmAmCmUmUmGmAmAmAmAmAmGmUmGmGmCmAmCmCmGmAmGmUmCmGmGmUmGmCmU*mU*mU*mU
**Q.** How did the “Max Editing” value [1] turn out when B1 was run?
**A.** Its value is 89.49%.

**Q.** What about the “12.5 ng mRNA, 3.9 nM sgRNA, Avg % Edit” value [2] of the same molecule?
**A.** Its value is 60.13%.

**Q.** And the “Max Editing” value ([3]; LNP formulated U-depleted Spy Cas9 mRNA and cyno specific sgRNAs)?
**A.** Its value is 99.18%.

**Q.** What about the “Max Editing” value ([3]; LNP formulated U-depleted Spy Cas9 mRNA and human specific sgRNAs) of the same molecule?
**A.** The value was 89.49%.
